Data taken from PMC9482650, “Quantitative fragmentomics allow affinity mapping of interactomes” (Nature Communications, 2022).

T1: ARHGAP21, Q5T5U3
T1 sequence (Q5T5U3 45-169, limits assumed, looked up): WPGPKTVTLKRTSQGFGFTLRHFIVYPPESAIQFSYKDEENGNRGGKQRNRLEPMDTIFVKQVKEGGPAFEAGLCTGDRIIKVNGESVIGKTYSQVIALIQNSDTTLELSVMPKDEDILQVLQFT

T2: DFNB31_2, Q9P202
T2 sequence (Q9P202 274-371, limits assumed, looked up): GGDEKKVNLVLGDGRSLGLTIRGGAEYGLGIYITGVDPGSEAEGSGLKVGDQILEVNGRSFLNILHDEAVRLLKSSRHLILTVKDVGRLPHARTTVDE

T3: DLG3_2, Q92796
T3 sequence (Q92796 221-321, limits assumed, looked up): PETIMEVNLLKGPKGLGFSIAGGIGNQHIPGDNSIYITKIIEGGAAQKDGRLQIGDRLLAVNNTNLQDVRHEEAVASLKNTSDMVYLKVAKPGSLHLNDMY

T4: GRIP1_3, Q9Y3R0
T4 sequence (Q9Y3R0 247-346, limits assumed, looked up): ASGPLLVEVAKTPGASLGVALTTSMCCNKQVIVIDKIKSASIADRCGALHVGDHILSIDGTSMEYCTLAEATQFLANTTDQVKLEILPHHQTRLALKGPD

T5: HTRA4, P83105
T5 sequence (P83105 378-476, limits assumed, looked up): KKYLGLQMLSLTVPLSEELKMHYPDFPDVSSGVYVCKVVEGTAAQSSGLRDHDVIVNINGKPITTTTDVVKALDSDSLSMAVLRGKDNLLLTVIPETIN

T6: LIN7B, Q9HAP6
T6 sequence (Q9HAP6 88-185, limits assumed, looked up): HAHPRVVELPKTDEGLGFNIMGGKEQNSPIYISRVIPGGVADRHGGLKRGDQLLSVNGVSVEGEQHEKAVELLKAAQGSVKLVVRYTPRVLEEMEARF

T7: MPP6, Q9NZW5
T7 sequence (Q9NZW5 125-219, limits assumed, looked up): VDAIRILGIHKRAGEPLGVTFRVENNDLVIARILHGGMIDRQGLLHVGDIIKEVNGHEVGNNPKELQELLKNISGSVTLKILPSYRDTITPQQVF

T8: MPP7, Q5T2T1
T8 sequence (Q5T2T1 134-230, limits assumed, looked up): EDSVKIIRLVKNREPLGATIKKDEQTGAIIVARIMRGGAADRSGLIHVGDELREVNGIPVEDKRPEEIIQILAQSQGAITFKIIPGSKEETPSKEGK

T9: NHERF3_1, Q5T2W1
T9 sequence (Q5T2W1 4-100, limits assumed, looked up): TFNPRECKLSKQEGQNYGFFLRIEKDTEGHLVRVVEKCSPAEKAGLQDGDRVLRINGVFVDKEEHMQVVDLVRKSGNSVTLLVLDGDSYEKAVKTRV

T10: PDZRN3_1, Q9UPQ7
T10 sequence (Q9UPQ7 244-349, limits assumed, looked up): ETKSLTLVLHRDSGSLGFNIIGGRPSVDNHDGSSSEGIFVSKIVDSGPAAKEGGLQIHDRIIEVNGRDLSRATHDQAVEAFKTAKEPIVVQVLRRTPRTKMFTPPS

T11: SNTG1, Q9NSN8
T11 sequence (Q9NSN8 52-150, limits assumed, looked up): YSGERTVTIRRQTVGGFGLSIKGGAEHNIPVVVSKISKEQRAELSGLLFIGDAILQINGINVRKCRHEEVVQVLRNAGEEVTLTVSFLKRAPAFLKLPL

T12: SYNJ2BP, P57105
T12 sequence (P57105 8-110, limits assumed, looked up): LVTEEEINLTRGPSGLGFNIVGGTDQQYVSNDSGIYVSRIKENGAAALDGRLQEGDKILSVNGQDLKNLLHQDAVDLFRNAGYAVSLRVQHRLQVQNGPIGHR


What was measured:
Experiment in all cases: holdup assay
Set-up in all cases: key: below the threshold = too weak to quantify, mostly under pKd 3.1 to 4
Settings in all cases: plain residues with an end cap or a label only (N-terminal biotin on a linker: ado-ado)
[1] = target: T1, ARHGAP21, Q5T5U3
[2] = target: T2, DFNB31_2, Q9P202
[3] = target: T3, DLG3_2, Q92796
[4] = target: FRMPD2_3, Q68DX3
FRMPD2_3, Q68DX3, sequence (Q68DX3 1073-1166): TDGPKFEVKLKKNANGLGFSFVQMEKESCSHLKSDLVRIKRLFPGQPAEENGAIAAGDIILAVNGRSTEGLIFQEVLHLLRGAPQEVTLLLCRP

[5] = target: GIPC2, Q8TF65
GIPC2, Q8TF65, sequence (Q8TF65 112-203): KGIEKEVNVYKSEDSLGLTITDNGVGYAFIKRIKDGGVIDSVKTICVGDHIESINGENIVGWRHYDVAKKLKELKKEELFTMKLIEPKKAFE

[6] = target: T4, GRIP1_3, Q9Y3R0
[7] = target: GRIP2_5, Q9C0E4
GRIP2_5, Q9C0E4, sequence (Q9C0E4 544-642): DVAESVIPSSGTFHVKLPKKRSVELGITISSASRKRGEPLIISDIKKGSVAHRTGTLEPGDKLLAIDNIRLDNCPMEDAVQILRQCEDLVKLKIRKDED

[8] = target: GRIP2_7, Q9C0E4
GRIP2_7, Q9C0E4, sequence (Q9C0E4 934-1023): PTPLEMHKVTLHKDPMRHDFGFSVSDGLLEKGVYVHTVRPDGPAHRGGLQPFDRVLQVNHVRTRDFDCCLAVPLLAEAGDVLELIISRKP

[9] = target: T5, HTRA4, P83105
[10] = target: Inadl_10, Q8NI35
Inadl_10, Q8NI35, sequence (Q8NI35 1673-1763): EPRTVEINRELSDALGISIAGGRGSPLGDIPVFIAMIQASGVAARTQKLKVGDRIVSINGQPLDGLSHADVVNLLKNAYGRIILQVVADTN

[11] = target: Inadl_2, Q8NI35
Inadl_2, Q8NI35, sequence (Q8NI35 238-335): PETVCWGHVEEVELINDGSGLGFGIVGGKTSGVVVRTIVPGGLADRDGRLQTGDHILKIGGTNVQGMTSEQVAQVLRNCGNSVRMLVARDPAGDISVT

[12] = target: Inadl_6, Q8NI35
Inadl_6, Q8NI35, sequence (Q8NI35 1058-1167): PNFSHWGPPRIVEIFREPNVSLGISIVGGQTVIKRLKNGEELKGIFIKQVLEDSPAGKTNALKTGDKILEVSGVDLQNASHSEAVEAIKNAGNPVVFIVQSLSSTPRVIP

[13] = target: LDB3, O75112
LDB3, O75112, sequence (O75112 1-94): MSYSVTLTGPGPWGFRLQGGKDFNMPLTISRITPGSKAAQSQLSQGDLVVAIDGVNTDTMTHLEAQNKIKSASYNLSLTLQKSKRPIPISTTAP

[14] = target: T6, LIN7B, Q9HAP6
[15] = target: MAGI1_2, Q96QZ7
MAGI1_2, Q96QZ7, sequence (Q96QZ7 456-580): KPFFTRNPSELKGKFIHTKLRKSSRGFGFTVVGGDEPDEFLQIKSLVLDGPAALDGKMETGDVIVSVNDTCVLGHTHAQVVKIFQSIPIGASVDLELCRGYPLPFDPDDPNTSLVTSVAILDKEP

[16] = target: MAGI2_5, Q86UL8
MAGI2_5, Q86UL8, sequence (Q86UL8 915-1017): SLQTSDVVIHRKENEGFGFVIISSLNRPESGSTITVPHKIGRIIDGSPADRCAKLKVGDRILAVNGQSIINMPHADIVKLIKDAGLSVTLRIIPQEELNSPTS

[17] = target: MAGI3_2, Q5TCQ9
MAGI3_2, Q5TCQ9, sequence (Q5TCQ9 398-503): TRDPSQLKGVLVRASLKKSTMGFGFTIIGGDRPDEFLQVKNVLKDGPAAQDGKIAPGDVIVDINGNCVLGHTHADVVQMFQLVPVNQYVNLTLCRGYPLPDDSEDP

[18] = target: T7, MPP6, Q9NZW5
[19] = target: T8, MPP7, Q5T2T1
[20] = target: T9, NHERF3_1, Q5T2W1
[21] = target: T10, PDZRN3_1, Q9UPQ7
[22] = target: PICK1, Q9NRD5
PICK1, Q9NRD5, sequence (Q9NRD5 17-115): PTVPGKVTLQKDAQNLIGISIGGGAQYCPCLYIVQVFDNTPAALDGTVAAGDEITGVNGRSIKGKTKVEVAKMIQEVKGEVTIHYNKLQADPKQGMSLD

[23] = target: T11, SNTG1, Q9NSN8
[24] = target: T12, SYNJ2BP, P57105

pKd [1] | pKd [2] | pKd [3] | pKd [4] | pKd [5] | pKd [6] | pKd [7] | pKd [8] | pKd [9] | pKd [10] | pKd [11] | pKd [12] | pKd [13] | pKd [14] | pKd [15] | pKd [16] | pKd [17] | pKd [18] | pKd [19] | pKd [20] | Binder | also measured
below the threshold | below the threshold | 4.01 | below the threshold | below the threshold | below the threshold | below the threshold | below the threshold | below the threshold | below the threshold | below the threshold | below the threshold | below the threshold | 3.58 | below the threshold | below the threshold | below the threshold | below the threshold | 3.59 | below the threshold | FEEEAEEEVA [TUBB4B, P68371] | pKd [21]: below the threshold; pKd [22]: below the threshold; pKd [23]: below the threshold; pKd [24]: below the threshold
4.19 | below the threshold | 4.85 | 3.63 | 4.38 | below the threshold | 3.48 | below the threshold | below the threshold | below the threshold | below the threshold | 4.01 | below the threshold | 4.5 | 3.6 | 4.89 | 4.44 | below the threshold | below the threshold | 3.93 | QELLEYETTV [XKR7, Q5GH72] | pKd [21]: 4.33; pKd [22]: below the threshold; pKd [23]: 5.14; pKd [24]: 4.98
3.96 | below the threshold | 4.42 | below the threshold | below the threshold | below the threshold | below the threshold | below the threshold | 4.11 | below the threshold | below the threshold | below the threshold | below the threshold | below the threshold | 4.4 | 3.73 | 4.83 | below the threshold | below the threshold | below the threshold | VISERNSTTV [C3AR1, Q16581] | pKd [21]: below the threshold; pKd [22]: below the threshold; pKd [23]: below the threshold; pKd [24]: 4.68
below the threshold | 3.6 | 5.23 | below the threshold | below the threshold | below the threshold | below the threshold | below the threshold | 4.5 | 3.6 | below the threshold | 3.89 | below the threshold | 4.16 | 4.84 | 4.12 | 5.16 | 3.63 | below the threshold | below the threshold | REVVMRVTTV [MARCHF9, Q86YJ5] | pKd [21]: 3.81; pKd [22]: below the threshold; pKd [23]: 4.89; pKd [24]: 4.82
3.53 | below the threshold | 4.06 | below the threshold | below the threshold | below the threshold | below the threshold | below the threshold | 3.75 | below the threshold | 4.27 | below the threshold | below the threshold | 3.72 | below the threshold | below the threshold | below the threshold | below the threshold | 4.24 | 4.05 | PDGEMMEVLI [AMOTL1, Q8IY63] | pKd [21]: below the threshold; pKd [22]: below the threshold; pKd [23]: 3.63; pKd [24]: below the threshold
4.27 | below the threshold | below the threshold | below the threshold | below the threshold | below the threshold | below the threshold | below the threshold | below the threshold | below the threshold | below the threshold | below the threshold | below the threshold | below the threshold | 4.43 | below the threshold | 4.37 | 3.75 | below the threshold | 5.16 | WRSKRTDTLL [RAMP3, O60896] | pKd [21]: 3.73; pKd [22]: below the threshold; pKd [23]: below the threshold; pKd [24]: 3.84
